Experimental findings from the nanobody polyreactivity screen of Harvey et al. (2022) are described below.

The data set can be described thus: yeast display, Sf9 membrane polyspecificity reagent, FACS + sequencing; frameworks hold sequencing errors. The procedure, abridged: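 Galactose induction of a Saccharomyces cerevisiae BJ5465 synthetic nanobody display library ran 36–48 hours. The cells were then stained for 1 hour at 4 °C with 10% biotinylated, detergent-solubilized Sf9 membrane reagent, pulled down on streptavidin microbeads and FACS-sorted into low and high (top ~1%) gates on expression and reagent-binding fluorescence. Labels for polyreactivity follow the gate of origin.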
With “QVQLVESGGGLVQAGGSLRLSCAASGRTFSPYAMGWYRQAPGKERELVAAITNGGSTHYADSVKGRFTISRDNAKNTVYLQMNSLKPEDTAVYYPYDYWGQGTQVTVSS”, the “polyreactivity (PSR sort gate)” value is given as “low polyreactivity”. The value for “QVQLVESGGGLVQAGGSLRLSCAASGSIFVEYAMGWYRQAPGKERELVSAIRWRGGSTNYADSVKGRFTISRDTAKNTVYLQMNSLNREDTAVYYCNARHPASGDLYRMDYWGQGTQVTVSS” was “low polyreactivity”; that for “QVQLVESGGGLVQAGGSLRLSCAASGSTFYGYAMGWYRQAPGKERELVAAITSTVITDYADSVKGRFTISRDNAKNTVYLQMNSLKPEDTAVYYCNKDRATRVTAEFRGDDDYWGQGTQVTVSS” was “low polyreactivity”. As for “QVQLVESGGGLVQAGGSLRLSCAASGFTFAYYAMGWYRLAPGKERELVAAINRSGGSTYYADSVKGRFTISRDNAKNTVYIEMNSLKPEDTAVYYCAAARPSLRDGVAHYYWGQGTQVTVSS”, the “polyreactivity (PSR sort gate)” value was “high polyreactivity”. As for “QVQLVESGGGLVQAGGSLRLSCAASGSTFRVYDMGWYRQAPGKERELVASLSYSVGSTYYADSVKGRFTISRDNAKNTVYLQMNSLKPEDTAVYYCAARPSYQPSSLARYDYWGQGTQVTVSS”, the entry is “low polyreactivity”; as for “QVQLVESGGGLVQAGGSLRLSCAAYGSTFWVYAMVWYRQAPGKERELVAAIDYSGGSTYYADSVKGRFTISRDNAKNNVYLQMNSLKPEDTAVYYCAAGEGQYWLWDGEGEYDYWGQGTQVTVSS”, “low polyreactivity”; as for “QVQLVESGGGLVQAGGSLRLSCAASGITFYWYAMGWYRQAPGKDRELVASITGNGGGTSYADSVKGRFTIARDNAKNTVYLQMNSLKPEDTAVYYCNTSVGGKEYDSWGQGTQVTVTS”, “low polyreactivity”. The value for “QVQLVESGGGLVQAGGSLRLSCAASGSTFLRYAMGWYRQAPGKERELVAAINWSGGGTSYADSVKWRFTISRDNAKNTVYLQMNSLKPEDTEGYSCAAYFRYSYYWSEYWGQGTQVTVSS” was “high polyreactivity”. As for “QVQLVESGGGLVQAGGSLRLSCAASGITFGSYAMGWYRQAPGKEREFVAAISLSGGNTYYADSVKGRFTISRDNAKNTVYLQMNSRKPEDTAVYYCAADYDYSGYGYWGQGTQVTVSS”, the entry is “high polyreactivity”; as for “QVQLVESGGGLVQAGGSLRLSCAASGSIFGNNAMGWYRQAPGKERELVAAISSGGSTNYADSVKGRFTISRDNAKNTVYLQMNSLKPEDTAVYYCATYYFYPSWYLLYGEYNYWGQGTQVTVSS”, “low polyreactivity”; as for “QVQIVESGGGLVQAGVSLRLSCAPSGSTFHLNAMGWYRQAPGKERELVAAISRGGSTYYADSVKGRFTISRDNAKNTVYLQMNRLKPEDTAVYYCNAVWSNFRLGYDYWGQGTQVNVSS”, “high polyreactivity”. Regarding “QVQLVESGGGLVQAGGSLRLSCAASGSIFVQYAMGWYRQAPGKERELVAAISRGGGRTYYADSVKGRFTISRDNANNTVYLQMNSLKPEDTAVYYCAADSRPRDDYWGQGTQVTVSS”, the “polyreactivity (PSR sort gate)” value is “high polyreactivity”. As for “QDQLVETGGGLVQAGGSLRLSCAASGIIFYPNAMGWYRQAPGKERELVAAISWRSGSTYYADSVKGRFTISRDNAKNTVYLQMNSLKPEDTAVYYCAADRRRSYIWRYDYWGQGTQVTVSS”, the entry is “low polyreactivity”; as for “QVQLVESGGGLVQAGGSLRLSCAASGFIFGRYAMGWYRQAPGKERELVAAITWSGGRTYYADSVKGRFTISRDNAKNTVFLQMNSLKPEDTAVYYCNAQGYTTYRGDYWGQGTQVTVSS”, “high polyreactivity”; as for “QVQLVDSGGGLVQAGGSLRLSCAASGRIFPYYAMGWYRQAPGKERELVAAISSGGSTKYADSVKGRFTISRDNAKNTVYLQMNSLKPEDTAVYYCAKDPFPWALFDYWGQGTLVTVSS”, “low polyreactivity”.

“QVQLVESGGGLVQAGGSLRFSCAASGRIFYLNAMGWYRQAPGKERELVAAISRSGGRTYYADSEKGRFTISRDNAKHTVYLQMNSLKPEDTAVYYCAADTAGATPERNYWGQGPQVTVSS”: the “polyreactivity (PSR sort gate)” value is recorded as “high polyreactivity”. As for “QVQLVESGGGLVQAGGSLRLSCAASGSIFYINDMGWYRQAPGTERELVAAISWSGGTTYYADSVKGRFTISRDNAKNTVYLQMNSLKPEDTAVYYCATDSFFLFPWGLSDYWGQGTQVTVSS”, the entry is “low polyreactivity”; as for “QVQLVESGGGLVQAGGSLRLSCAASGFTFYRYAMGWYRQAPGKERELVASISRNGGSTYYADTVKGRFTISRDTEKNTVYFLMNSLKPEDTAVYYCNTAFYPPTNFYWGQGTQVTVSS”, “high polyreactivity”.

With “QVQLVESGGGLVQARCSLRLSCDASGSIFPHYAMGWYRQAPGKEREFVATISGSTGRTYYADSVKGRFTISRDYAKNTVYLQMNSLKTEDTAVYYCATSVGYYLPPIKYDYWGQGTQVTVSS”, the “polyreactivity (PSR sort gate)” value was “low polyreactivity”. The value for “QVQLVESGGGLVQAGGSLRLSCAASGIIFSLYAMGWYRQAPGKERELVAAISASDGSTYYAVSVKGRFTISRDNAKNTVYLQMNSLKPEDTAVYYCAADSRPTQEYDYWGQGTQVTVSS” was “low polyreactivity”; that for “QVQLVESGGGLVQAGGSLRLSCAASGSIFTLYAMGWYRQAPGKERELVAAITRSGGSTYYADSVKGRFTISRDNAKNTVYLQMNSLKPEDTAVYYCAADKAPYSTEGDYWGQGTQVTVSS” was “high polyreactivity”. As for “QVQLVESGGGLVQAGGSLRLSCAASGFIFRYYAMGWYRQAPGKERELVAAINASGGRTYYADSVKGRFTISRDNARNTVYFQMNSLKPEDSAVYYCAAYRSYQTFDYWGQGTQVTVSS”, the entry is “high polyreactivity”. Turning to “QVHLVESGGGLVQAGGSLRLSCAASGRTFNRTAMGSYRQAPGKERELVAAMSWRGDSTSYADSVKGRFTISRDNAKNTVYLQMNSLKPADTAVYYCATAHDYAFYRYWYVPSEYYYWGQGTQVTVSW”, the “polyreactivity (PSR sort gate)” value was “low polyreactivity”. On to “QVQLVESGGGLVQAGGSLRLSCAASGFIFRTYAMGWYRQAPGKERELVAAISGTTGSTYYADSVKGRFTISRDNAKYTVYLQMNSLKPEDTAVYFCAADYYWYIRYDYWGQGTQVTVSS”, for which the “polyreactivity (PSR sort gate)” value is reported as “low polyreactivity”. As for “QVQLGESGGGLVQAGGSLRLTCAASGIIFPYYAMGWYRQATGKERELVAGISSSGGITYADSVKGRFTISRDNGKNTVYLQMNSLKPEDTAVYYCNAEYQWLEYDYCGQGTQVTVSS”, the entry is “low polyreactivity”; as for “QVHLVESGGGLVQAGGSLSLSCAASGRNFRAYAMGWYRQAPGKETEFVAAISRSGGSTYYADSVKGRFTISRDYAKNTVYLQMHSLKPVDTAVYYCAARVRYPYRYYYWGQGTQVTVSS”, “high polyreactivity”; as for “QVQLVESGGGLVQAGGSLRLSCAASGRTFYKNTMGWYRQAPGKERELVAAIRWRGSSTYYADSVKGRFTISRDNAKNSVYLKMNSLKPEDTAVYYCAAPSSVRGKVISADYAYWGQGTQVTVSS”, “high polyreactivity”. The value for “PVQLEESGGGLDQAGGSLRISCAASGRIFWAKAMGWYRQAPGKERELVAAINRRTGITYYADSVKGRFTISRDNAKNTVYFQMNSLKPEDTAVYYCAADWRTKCYDSLGQGTQVTVSS” was “high polyreactivity”; that for “QVHLVESGGGLVQAGGSLRLSCAASRSTFVNYAMGWYRQAPGKERELVAGISRSGGSTYYADSVKGRFTISRDNAKNTVYLQMNSLKPDDTAVYYCAKRYGRLTRYDYWGQGTQVNVSS” was “high polyreactivity”. The value for “QVQLVESGAGLVQAGGSLRLSCAASGFIFYYYAMGRYRPAPGKERELVAAIDSSGGDTYFADSVKGRFSISRDHAKNTVYLQMNSLKPEDTAVYYCNARQRLISLYGNRLTYGYWGQGTQVTVSS” was “high polyreactivity”. With “QVQLVESGGGLVQAGGSLRLSCAASGRIFQKYAMGWYRQAPGKERELVAAITTSGGSTYYADSVKGRFTISRDNAKNTVYLQMNSLKPEDTAVYYCAAKSTLSKEGYWGQGTHVTVSS”, the “polyreactivity (PSR sort gate)” value was “high polyreactivity”. The value for “QVQLVESGGGLVQAGGRLRLSCAASGFTLVGYAMGWSRQAPGKERELVAAISSGGGSTYYADSVKGRFTISRDNAKNTVYLQMNSLKPEDTAVYYCAVYVDYYGYGYWGQGTQVTVSS” was “high polyreactivity”; that for “QVQLVESGGGLVQAGGSLRLSCAPSGLIFYRYAMGWYRQAPGKERELVAAITRGGSTHYADSVKGRFTISRDNAKFTVYLQMNSLKPEDTAVYYCAATFKGRIYRYEYWGQGTQVTVSS” was “high polyreactivity”.

As for “QVQLVEAGGGLVQAGGSLRLSCAASGLIFWAYAMGWYRQAPGKERELVAAINWRGGSTYYADSVKGRFTISRDNAKNTVDLQMNSLKPEDTAVYYCADDSYYDEYDYLGQGTQVTVSS”, the “polyreactivity (PSR sort gate)” value is “low polyreactivity”.

On to “QVQLVESGGGLVQAGGSLRLSCADSGYIFDAYAMGWYRQAPGKERELVAAIDIGGSTYYADSVKGRFTISRDNAKNTVYLQMNSLKPEDTAVYYCAEWFYFDQWDYAREYWGQGTQVTVSS”, for which the “polyreactivity (PSR sort gate)” value is given as “low polyreactivity”. The value for “QVQLQESGGGQVQAGGSLRLSCEASGTIFLYAFMGWYRQAPGKERELVAAIDVGTTTNYADSVKGRFTISRDNAKNTVYLQMNSLKPEDTAVYYCAANLGYLDDLGYWGQGTQVTVSS” was “low polyreactivity”. With “QVQLVVSGGGLVQAGGSLRLSCAASGSIFYFNAMGWYRQAPGKERELVASITSGGSTNYADSVKGRFTISRDNAKTTVYLQLISLKPEDTAVYYFNAYTWGVGSSLDDVGYWGQGTQVTGSS”, the “polyreactivity (PSR sort gate)” value was “low polyreactivity”. As for “QVQLVESGGGLVQAGGSLRLSCAASGSIFVPYAMGWYRQAPGKERELVAAITWSGSSTYYADSVKGRFTISRDNAKNTVYLQMNSLKPEDTAVYYCAADYFDWEGNGYYYWGQGTQVTVSS”, the entry is “high polyreactivity”; as for “QVQLVESGGGIVQAGGSLRLSSAASGINFRYYAMGSSRPAPGKDRELVAVKSRDGTTYYADSVKGRFTISRDNAKNTVYLPMNSLKAADTAVYYCAKKAWVIYNRKFSSGYDYWGQGTQVNVSS”, “low polyreactivity”; as for “QVQLVESGGGLVQAGVSLRLSCAASGRTFEYNAMGWYRQAPGKERELVATIRYSGTSTYADSVKGRFTISRDNAKNTVYLQMNSLKPEDSAVYYFAKQVRYYGYKYNYWGLGTQVTVSS”, “high polyreactivity”. As for “QVQLVESGGGLVQAGGSLRLTCAASGITFISYAMGWYIQAPGKERELVAAITKSGGRTYYADSVKGRFTISRDNAKKTVYLQMNSLKPEDTAVYYCAAYHLRDNRIGGGYWGQGTQVTVSS”, the entry is “high polyreactivity”.
